This note sets out measurements from paper PMC5065780.

The data set deals with VP35 IID (interferon inhibitory domain) (Ebola virus, UniProt X5GXU1 215-340). The data set is described as follows: EMSA.

B1: 10 bp dsRNA probe (dsRNA)
RNA 1: CACUGCGACC
RNA 2: GGUCGCAGUG
As for B1, the binding result is reported as “binds”.
